Source: publication PMC9623368, “P38 kinases mediate NLRP1 inflammasome activation after ribotoxic stress response and virus infection” (The Journal of Experimental Medicine, 2022)

Target: T1, GST-NLRP1^PYD (Homo sapiens, UniProt Q9C000)
T1 construct: NLRP1, human, pyrin domain (PYD), aa 1-92; Vector: customised destination vector based on pGEX-2T; also called GST-NRLP1^PYD; source: E. coli BL21, purified (glutathione resin, gel filtration)
Experiment: ELISA; GST-NLRP1^PYD or GST in PBS immobilised on ELISA plates at 1 ug/ml overnight; serial tenfold dilutions of HA-tagged nanobodies in 10% FBS/PBS; detected with HRP-coupled anti-HA and TMB, absorption at 450 nm
Settings: both partners purified

T1 sequence (Q9C000 1-92): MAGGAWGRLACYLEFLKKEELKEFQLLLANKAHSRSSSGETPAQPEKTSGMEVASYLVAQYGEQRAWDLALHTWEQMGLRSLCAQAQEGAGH

B1: VHH_(NLRP1 PYD 1) (VHH)
VHH: QVQLVESGGGLVEAGGSLRLSCAASGRTFSNYALSWFRQAPGKERELVAAISWSGDYTYYADSVKGRFTISRDNAKNTVYLQMHSLKPEDTAVYYCNADSRSGTYSPSSGSWGQGTQVTVSS
notes: Alpaca nanobody raised against His-NLRP1^PYD, selected by phage display on GST-NLRP1^PYD; cloned into a pHEN6-based periplasmic vector with C-terminal HA-His6; also called VHHPYD 1; NLRP1^PYD nanobody 1; source: E. coli WK6, periplasmic extract, purified (Ni-NTA, desalting); not shown: HA, C-terminal, kept
binding result: binds

B2: VHH_(NLRP1 PYD) 2 (VHH)
VHH: QVQLVESGGGLVQTGGSLRLSCVASGGTFSRFTMAWFRQAPGKEREFVAGVSWSGGLTHYSDSVKGRFTISRDNAKNTLYLQMSSLKPEDTAVYYCYGQSTVAGATIDYWGQGTQVTVSS
notes: Alpaca nanobody raised against His-NLRP1^PYD, selected by phage display on GST-NLRP1^PYD; cloned into a pHEN6-based periplasmic vector with C-terminal HA-His6; also called VHHPYD 2; NLRP1^PYD nanobody 2; source: E. coli WK6, periplasmic extract, purified (Ni-NTA, desalting); not shown: HA, C-terminal, kept
binding result: binds
